Data on four molecules can be found in paper PMC10397247.

Assay in all cases: two-hybrid library CCNG1;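 further: natural log of median RNA to DNA barcode read ratio; higher means stronger binding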
The target of one experiment is T1, 4H2438-bA.
T1 chain: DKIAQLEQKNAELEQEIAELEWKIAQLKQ

Another experiment addresses T2, 4H2915-bA.
T2 chain: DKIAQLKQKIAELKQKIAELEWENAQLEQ

For a further experiment, the target named is T3, 4H2503-bA.
T3 chain: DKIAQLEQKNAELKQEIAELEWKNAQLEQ

Another experiment concerns the target T4, 4H2588-bA.
T4 chain: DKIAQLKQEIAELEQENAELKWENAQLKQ

Another experiment addresses T5, 4H348-bA.
T5 chain: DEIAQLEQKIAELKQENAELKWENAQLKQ

The target of another experiment is T6, 4H2223-bA.
T6 chain: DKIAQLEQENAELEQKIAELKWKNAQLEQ

The target in the next experiment is T7, 4H2839-bA.
T7 chain: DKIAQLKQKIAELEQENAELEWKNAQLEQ

The target in a further experiment is T8, 4H2473-bA.
T8 chain: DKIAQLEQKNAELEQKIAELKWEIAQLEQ

In the next experiment the target is T9, 4H492-bA.
T9 chain: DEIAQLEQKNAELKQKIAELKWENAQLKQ

A further experiment addresses T10, 4H2143-bA.
T10 chain: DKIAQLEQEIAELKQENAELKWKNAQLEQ

The target in the next experiment is T11, 4H2134-bA.
T11 chain: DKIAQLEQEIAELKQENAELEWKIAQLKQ

The target of the next experiment is T12, 4H319-bA.
T12 chain: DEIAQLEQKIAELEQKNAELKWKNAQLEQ

Another experiment has as its target T13, 4H182-bA.
T13 chain: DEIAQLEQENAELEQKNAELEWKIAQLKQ

The next experiment addresses T14, 4H477-bA.
T14 chain: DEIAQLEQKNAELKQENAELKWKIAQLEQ

The next experiment has as its target T15, 4H2717-bA.
T15 chain: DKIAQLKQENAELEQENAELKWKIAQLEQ

The next experiment addresses T16, 4H40-bA.
T16 chain: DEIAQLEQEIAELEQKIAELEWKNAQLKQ

The next experiment concerns the target T17, 4H741-bA.
T17 chain: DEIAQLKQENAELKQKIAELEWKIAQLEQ

For another experiment, the target named is T18, 4H3057-bA.
T18 chain: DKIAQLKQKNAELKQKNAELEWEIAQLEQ

Another experiment deals with T19, 4H3277-bA.
T19 chain: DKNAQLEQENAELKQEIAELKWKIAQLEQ

The target of a further experiment is T20, 4H2692-bA.
T20 chain: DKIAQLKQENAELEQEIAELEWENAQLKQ

The target of another experiment is T21, O1-bP.
T21 chain: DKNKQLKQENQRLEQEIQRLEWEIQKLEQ

A further experiment concerns the target T22, 4H932-bH.
T22 chain: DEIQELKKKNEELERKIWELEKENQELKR

A further experiment addresses T23, 4H949-bH.
T23 chain: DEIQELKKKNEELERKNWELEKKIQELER

The target in the next experiment is T24, 4H3606-bA.
T24 chain: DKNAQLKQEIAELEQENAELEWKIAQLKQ

Another experiment has as its target T25, 4H953-bA.
T25 chain: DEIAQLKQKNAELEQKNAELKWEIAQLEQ

The target in another experiment is T26, 4H370-bA.
T26 chain: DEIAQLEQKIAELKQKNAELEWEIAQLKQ

The target in another experiment is T27, 4H3782-bA.
T27 chain: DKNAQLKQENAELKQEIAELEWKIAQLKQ

A further experiment deals with T28, 4H2576-bA.
T28 chain: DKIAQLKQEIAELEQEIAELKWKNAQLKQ

The target of the next experiment is T29, 4H2610-bA.
T29 chain: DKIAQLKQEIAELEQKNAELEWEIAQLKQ

A further experiment addresses T30, 4H1369-bA.
T30 chain: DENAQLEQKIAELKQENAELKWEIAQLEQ

The target of another experiment is T31, 4H346-bH.
T31 chain: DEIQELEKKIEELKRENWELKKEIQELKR

In another experiment the target is T32, 4H797-bA.
T32 chain: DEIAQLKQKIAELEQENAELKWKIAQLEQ

A further experiment has as its target T33, 4H2667-bA.
T33 chain: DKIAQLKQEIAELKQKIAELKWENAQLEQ

In the next experiment the target is T34, 4H1845-bA.
T34 chain: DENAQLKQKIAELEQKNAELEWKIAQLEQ

The target in a further experiment is T35, 4H967-bA.
T35 chain: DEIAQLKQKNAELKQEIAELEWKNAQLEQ

The next experiment has as its target T36, 4H1446-bA.
T36 chain: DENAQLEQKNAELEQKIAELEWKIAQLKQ

Another experiment addresses T37, 4H4001-bA.
T37 chain: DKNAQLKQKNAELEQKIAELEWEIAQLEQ

Another experiment has as its target T38, 4H918-bA.
T38 chain: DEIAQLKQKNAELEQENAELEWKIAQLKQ

A further experiment addresses T39, 4H1328-bA.
T39 chain: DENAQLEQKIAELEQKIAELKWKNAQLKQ

In another experiment the target is T40, 4H883-bA.
T40 chain: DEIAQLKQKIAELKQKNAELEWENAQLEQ

A further experiment addresses T41, 4H2697-bA.
T41 chain: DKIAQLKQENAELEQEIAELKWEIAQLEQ

For the next experiment, the target named is T42, 4H3189-bA.
T42 chain: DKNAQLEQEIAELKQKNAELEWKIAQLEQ

In the next experiment the target is T43, 4H72-bA.
T43 chain: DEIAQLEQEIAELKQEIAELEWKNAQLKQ

The next experiment addresses T44, 4H607-bA.
T44 chain: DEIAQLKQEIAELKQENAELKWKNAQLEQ

In a further experiment the target is T45, 4H462-bA.
T45 chain: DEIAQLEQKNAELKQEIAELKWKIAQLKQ

The target in another experiment is T46, 4H331-bA.
T46 chain: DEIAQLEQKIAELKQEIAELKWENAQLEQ

The target in a further experiment is T47, 4H3843-bA.
T47 chain: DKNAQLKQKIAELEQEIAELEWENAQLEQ

The next experiment concerns the target T48, 4H568-bA.
T48 chain: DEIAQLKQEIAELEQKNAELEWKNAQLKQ

For another experiment, the target named is T49, 4H687-bA.
T49 chain: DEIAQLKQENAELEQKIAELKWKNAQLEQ

In another experiment the target is T50, 4H2937-bH.
T50 chain: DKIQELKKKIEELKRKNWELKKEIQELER

Another experiment addresses T51, 4H491-bH.
T51 chain: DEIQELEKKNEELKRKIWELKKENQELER

The next experiment deals with T52, 4H2944-bH.
T52 chain: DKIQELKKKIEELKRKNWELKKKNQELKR

A further experiment has as its target T53, 4H342-bH.
T53 chain: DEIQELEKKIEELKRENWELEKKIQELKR

The target in a further experiment is T54, 4H2696-bH.
T54 chain: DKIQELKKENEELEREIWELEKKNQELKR

The next experiment has as its target T55, 4H48-bH.
T55 chain: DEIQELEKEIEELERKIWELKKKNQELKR

The next experiment concerns the target T56, 4H2883-bH.
T56 chain: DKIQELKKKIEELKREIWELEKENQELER

Consider DEIAQLEQENAELEQKNAELEWKIAQLKQ [4H182-bA], for which the interaction score is -0.622 in the experiment with 4H2438-bA; 0.668 in the experiment with 4H2915-bA; -0.357 in the experiment with 4H2503-bA; 0.365 in the experiment with 4H2588-bA; -1.35 in the experiment with 4H348-bA; -0.693 in the experiment with 4H2223-bA. In addition, the interaction score with 4H2839-bA was 0.49; with 4H2473-bA it was -0.132; with 4H492-bA, -0.651; in the experiment with 4H2143-bA it was -0.647; with 4H2134-bA it was -0.497; in the experiment with 4H319-bA, -0.41. Besides, the interaction score with 4H182-bA is -0.0793; with 4H477-bA, -0.804; with 4H2717-bA it was 0.261; with 4H40-bA, -1.06; with 4H741-bA, -0.573; with 4H3057-bA, 2.13. Besides, the figures for the interaction score with 4H3277-bA and with 4H2692-bA were -0.0929 and 0.136, respectively.
For the molecule DEIQELKKKNEELERKIWELEKENQELKR [4H932-bH], the results for the interaction score in the experiment with O1-bP, with 4H932-bH and in the experiment with 4H949-bH were -1.96, -0.509 and -0.517, respectively.
Turning to DENAQLEQKIAELEQKIAELKWKNAQLKQ [4H1328-bA], the interaction score was 0.221 with 4H3606-bA; -0.977 with 4H953-bA; -0.958 with 4H370-bA; 0.142 with 4H3782-bA; 1.95 in the experiment with 4H2576-bA; -0.633 in the experiment with 4H2610-bA. The interaction score was -0.903 with 4H1369-bA; 0.114 with 4H346-bH; -1.68 in the experiment with 4H797-bA; 0.432 with 4H2667-bA; -0.257 with 4H1845-bA; -0.292 with 4H967-bA. Besides, the interaction score was 0.372 with 4H1446-bA; 1.48 in the experiment with 4H4001-bA; -0.412 with 4H918-bA; 1.62 with 4H1328-bA; -0.916 with 4H883-bA; 0.429 in the experiment with 4H2697-bA. Besides, the interaction score was -0.907 with 4H3189-bA; 1.25 in the experiment with 4H72-bA; -0.918 with 4H607-bA; -0.405 with 4H462-bA; 1.02 with 4H331-bA; 1.8 in the experiment with 4H3843-bA. In addition, the interaction score in the experiment with 4H568-bA was -0.0125; with 4H687-bA, -0.983.
As to DKIQELKKENEELEREIWELEKKNQELKR [4H2696-bH], the interaction score with 4H2937-bH is 1.47; with 4H491-bH it was 1.73; with 4H2944-bH, -0.0809; with 4H342-bH it was 0.972; in the experiment with 4H2696-bH it was 0.576; in the experiment with 4H48-bH it was 1.04. The molecule further yielded an interaction score in the experiment with 4H2883-bH of 1.5.
